We go through three molecules from patent WO2018083240A1 (dated 2018).

The target of assay [1] is Screening Peptide DDR1_HUMAN(788-808)[pY796] (human). Put plainly: ELISA, biotinylated peptide on streptavidin plate, 30 ul transfection supernatant. A general note: In an ELISA, binding on a coated surface is turned into a signal by an enzyme label.
Assay [2] has as its target T1, Screening Peptide DDR1_HUMAN(788-808) (human, N-terminal Glu(Bi-PEG) (residue 1 of the letters given); C-terminal amide (-NH2)).
T1 construct: The leading E stands for the printed Glu(Bi-PEG), which is not part of DDR1 788-808; also called non-phosphorylated screening peptide
T1 peptide: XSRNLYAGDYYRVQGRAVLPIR
The assay is described as above.

For assay [3], the target named is Screening Peptide DDR1_HUMAN(788-808)[pY796] (human). Briefly: SPR (Biacore T200), antibody captured by goat anti-rabbit Fc, peptide as analyte, 25 C; value of Table 3 as repeated in the description.

B1: rabbit monoclonal anti-pY796-DDR1 antibody 22D9 (antibody, V domains shown)
VH: QSVEESGGRLVTPGTPLTLTCKVSGFSLSNYHMIWVRQAPGKGLEWIGIISRRGTTWYASWVKGRFTISKSSTTVDLKITSPTTEDTATYFCARGGVDSSYRDLWGPGTLVTVSS
VL: QVLTQTPSSVSAAVGGTVTINCQSNQRVANVNCLAWYQQKPGQPPKLLIYDASSLASGVPSRFSGSGSGTQFTLSISGVQCGDAATYYCQGTYATFGASAWYGDAFGGGTEVVVE
notes: Full-length rabbit IgG (150 kDa), expressed in HEK293 cells; Same variable domains as 31A5; also called clone 22D9
For orientation: Kd means the equilibrium constant for the complex coming apart. Low readings indicate higher affinity, high ones lower affinity. As for B1, the OD 405 in assay [1] came to 3.12 OD 405; in assay [2] it was 0.286 OD 405. In assay [3], this molecule showed a dissociation constant Kd of 0.051 nM.

B2: rabbit monoclonal anti-pY796-DDR1 antibody 31A5 (antibody, V domains shown)
VH: QSVEESGGRLVTPGTPLTLTCKVSGFSLSNYHMIWVRQAPGKGLEWIGIISRRGTTWYASWVKGRFTISKSSTTVDLKITSPTTEDTATYFCARGGVDSSYRDLWGPGTLVTVSS
VL: QVLTQTPSSVSAAVGGTVTINCQSNQRVANVNCLAWYQQKPGQPPKLLIYDASSLASGVPSRFSGSGSGTQFTLSISGVQCGDAATYYCQGTYATFGASAWYGDAFGGGTEVVVE
notes: Full-length rabbit IgG (150 kDa), expressed in HEK293 cells; Same variable domains as 22D9; also called clone 31A5
With B2, the OD 405 in assay [1] stood at 2.98 OD 405; in assay [2] it was 0.253 OD 405.

B3: rabbit monoclonal anti-pY796-DDR1 antibody 20G11 (antibody, V domains shown)
VH: QSVEESGGRLVTPGTPLTLTCKVSGFSLSNYHMIWVRQAPGKGLEWIGIISRRGTTWYASWVKGRFTISKGSTTVDLKITSPTTEDTATYFCARGGVDSSYRDLWGPGTLVTVSS
VL: QVLTQTPSSVSAAVGGTVTINCQSSQRVANVNCLAWYQQKPGQPPKLLIYDASSLASGVPSRFSGSGSGTQFTLSISGVQCGDAATYYCQGTYATFGASAWYGDAFGGGTEVVVE
notes: Full-length rabbit IgG (150 kDa), recombinantly expressed in HEK293 cells; also called clone 20G11
As to B3, the figures for the OD 405 in assay [1] and in assay [2] were 3.06 OD 405 and 0.313 OD 405, respectively. Further, the Kd in assay [3] came to 0.038 nM.
